In patent US20190276499A1, “Protein VII Fragments and Methods of Use Thereof for the Treatment of Inflammatory Disorders” (priority 2016, published 2019):

Experiments:
Type in all cases: cell-based
HMGB1 [1] = molecular target: T1, HMGB1 (Homo sapiens, UniProt P09429); experiment: GFP immunoprecipitation from A549 cells transfected with protein VII-GFP constructs; parameters: endogenous in cells; host or cells: A549; details: A549 cells transfected 24 hours
T1 sequence (P09429 1-215): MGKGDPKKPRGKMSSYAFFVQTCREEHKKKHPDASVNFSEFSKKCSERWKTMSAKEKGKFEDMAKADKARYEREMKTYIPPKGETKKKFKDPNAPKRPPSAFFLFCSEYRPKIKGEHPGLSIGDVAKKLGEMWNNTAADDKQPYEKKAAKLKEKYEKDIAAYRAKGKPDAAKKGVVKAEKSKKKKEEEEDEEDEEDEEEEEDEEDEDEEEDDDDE
Experimental: We further narrowed down this binding region through expression of protein VII peptides tagged with GFP. […] Cellular fractionation of A549 cells transfected for 24 hours with GFP and the different protein VII constructs is shown in FIG. 7C.

HMGB1 [2] = molecular target: T1, HMGB1; experiment: Salt fractionation of nuclei, western blot for HMGB1; parameters: endogenous in cells; host or cells: A549 (also 293 / 293-Cre in the salt fractionation); details: for Chromatin association of HMGB1 (retention in high salt fractions): A549 cells, doxycycline-induced expression
Experimental: (§1) Salt fractionation of nuclei was adapted from established protocols (Zaret, K. (2005) Micrococcal nuclease analysis of chromatin structure. Curr. Protoc. Mol., Biol. Chapter 21, Unit 21.1; Teves et al. (2012) Methods Mol. Biol., 833:421-432). Briefly, 2-4×10^7 cells were collected and resuspended in 2 mL of ice-cold buffer I (0.32 M sucrose, 60 mM KCl, 15 mM NaCl, 5 mM MgCl2, 0.1 mM EGTA, 15 mM Tris, pH 7.5, 0.5 mM DTT, 0.1 mM PMSF and protease inhibitor cocktail from Roche). To dissolve the plasma membrane, 2 mL ice-cold buffer I supplemented with 0.1% IGEPAL were added and samples were incubated on ice for 10 minutes. The 4 mL of nuclei was layered on 8 mL of ice-cold buffer II (1.2 M sucrose, 60 mM KCl, 15 mM NaCl, 5 mM MgCl2, 0.1 mM EGTA, 15 mM Tris, pH 7.5, 0.5 mM DTT, 0.1 mM PMSF and protease inhibitor cocktail from Roche) and centrifuged for 20 minutes at 10,000×g and 4° C. The pelleted nuclei were resuspended in 400 μL buffer III (10 mM Tris pH 7.4, 2 mM MgCl2, 0.1 mM PMSF) supplemented with 5 mM CaCl2 and the DNA was digested to mononucleosomes by addition of 1 unit of MNase (Sigma-Aldrich, N3755). The reaction was incubated at 37° C. for 30 minutes and then stopped by addition of 25 μL of 0.1M EGTA. The samples were centrifuged for 10 minutes, 350×g, at 4° C., and supernatants were set aside for western blot analysis. The pellet was resuspended in 400 μL of buffer IV (70 mM NaCl, 10 mM Tris pH 7.4, 2 mM MgCl2, 2 mM EGTA, 0.1% Triton X-100, 0.1 mM PMSF) with 80 mM salt and rotated for 30 minutes at 4° C. The sample was centrifuged for 10 minutes at 350×g, 4° C., and the supernatant collected for western blot analysis. This step was repeated for salt concentrations in buffer IV of 150 mM, 300 mM and 600 mM. The final pellet was resuspended in 400 μL ddH2O and all samples were analyzed together by western blot. An aliquot of each supernatant was set aside for DNA purification using a PCR purification kit (Qiagen) and analyzed by agarose gel electrophoresis. […]

HMGB2 = molecular target: T2, HMGB2 (Homo sapiens, UniProt P26583); experiment: Salt fractionation of nuclei, western blot for HMGB2; details: upon protein VII expression
T2 construct: endogenous in cells; host or cells: THP-1 (PMA-differentiated)
T2 sequence (P26583 1-209): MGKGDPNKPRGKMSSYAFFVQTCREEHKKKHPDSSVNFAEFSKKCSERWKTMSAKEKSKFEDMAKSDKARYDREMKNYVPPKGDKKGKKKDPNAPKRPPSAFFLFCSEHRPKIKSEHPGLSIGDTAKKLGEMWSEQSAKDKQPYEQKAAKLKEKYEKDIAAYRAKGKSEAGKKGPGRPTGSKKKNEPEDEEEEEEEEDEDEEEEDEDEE
Experimental: as §1, with “The reaction was incubated at 37° C. for 30 minutes and then stopped by addition of 25 μL of 0.1M EGTA. The samples were centrifuged for 10 minutes, 350×g, at 4° C., and supernatants were set aside for western blot analysis. The pellet was resuspended in 400 μL of buffer IV (70 mM NaCl, 10 mM Tris pH 7.4, 2 mM MgCl2, 2 mM EGTA, 0.1% Triton X-100, 0.1 mM PMSF) with 80 mM salt and rotated for 30 minutes at 4° C. The sample was centrifuged for 10 minutes at 350×g, 4° C., and the supernatant collected for western blot analysis. This step was repeated for salt concentrations in buffer IV of 150 mM, 300 mM and 600 mM.” left out

HMGB1 [3] = molecular target: T1, HMGB1; experiment: Fluorescence recovery after photobleaching (FRAP) of HMGB1-mGFP
Experimental: Full-length HMGB1 was cloned from pcDNA3.1 Flag-hHMGB1 (Addgene 31609) into pEGFP-N1 containing a L221K mutation to prevent dimerization of GFP molecules (Zacharias et al. (2002) Science 296:913-916). A549 cells were induced to express protein VII for four days with doxycycline in glass-bottom dishes. Cells were then transfected with the construct that constitutively expresses HMGB1 with a monomeric GFP C-terminal tag. FRAP was carried out using standard methods on a Zeiss LSM confocal microscope. Diffusion coefficients were calculated using the “simFRAP” algorithm (imagej.nih.gov/ij/plugins/simfrap/index.html), a simulation based approach to FRAP analysis (Blumenthal et al. (2015) Sci. Rep., 5:11655).

B1: protein VII: mature protein VII of human adenovirus type 5 (SEQ ID NO:1), expressed in cells, mostly with C-terminal HA tag (protein)
chain: AKKRSDQHPVRVRGHYRAPWGAHKRGRTGRTTVDDAIDAVVEEARNYTPTPPPVSTVDAAIQTVVRGARRYAKMKRRRRRVARRHRRRPGTAAQRAAAALLNRARRTGRRAAMRAARRLAAGIVTVPPRSRRRAAAAAAAAISAMTQGRRGNVYWVRDSVSGLRVPVRTRPPRN
modifications: C-terminal HA tag; Human adenovirus 5
Pull-down of HMGB1 by GFP immunoprecipitation (HMGB1 [1]): able to pull-down HMGB1
Retention of HMGB1 in the 600 mM high-salt fraction (HMGB1 [2]; A549 cells transfected 24 hours with GFP-tagged constructs): retention of HMGB1
Chromatin association of HMGB1 (retention in high salt fractions) (HMGB1 [2]): Increased chromatin association
Chromatin association of HMGB1 (retention in high salt fractions) (HMGB1 [2]; listed as Ad5 protein VII): retention in the high salt chromatin fractions
Chromatin association of HMGB2 (fractionated nuclei) (HMGB2): Increased chromatin association
HMGB1 mobility by FRAP (HMGB1 [3]; A549 cells expressing protein VII, HMGB1-mGFP): decreased HMGB1 diffusion
Fluorescence recovery after photo-bleaching of full-length HMGB1 and HMGB1 A box (HMGB1 [3]; upon expression of protein VII): dramatically delayed
